Here are results for one molecule from publication PMC2956063.

The target in assay [1] is normal recombinant fibrinogen (UniProt P02671). Put plainly: plasmin protection assay.
For assay [2], the target named is recombinant γN308K fibrinogen (UniProt P02671). Put plainly: plasmin protection assay.

Where no end group is shown, it is not given here.

B1: GPRP-amide (peptide)
peptide: GPRP-NH2
Consider B1, for which the GPRP concentration of full protection in assay [1] amounted to 5 mM. In assay [2], the GPRP concentration at which fragment D1 was readily evident was 0.5 mM, the GPRP concentration of full protection was above 20 mM and the fold weaker than normal fibrinogen amounted to 10 fold.
